Experimental data reported in FireProtDB (doi:10.1021/bi991422s).

Conditions: Aspergillus oryzae (strain ATCC 42149 / RIB 40), pH 7, DSC, MOPS 30 mM, reversible: yes, whole UniProt chain shown; for denaturant m value / denaturant midpoint (higher = more stable) / unfolding free energy: Urea

B1: Guanyl-specific ribonuclease T1 wild type, P00651 (protein)
chain: MMYSKLLTLTTLLLPTALALPSLVERACDYTCGSNCYSSSDVSTAQAAGYQLHEDGETVGSNSYPHKYNNYEGFDFSVSSPYYEWPILSSGDVYSGGSPGADRVVFNENNQLAGVITHTGASGNNFVECT
denaturant m value (5 °C): 1.18 kcal/mol/M | denaturant midpoint (higher = more stable) (5 °C): 7.04 M | unfolding free energy (5 °C): 8.32 kcal/mol | denaturant m value (10 °C): 1.18 kcal/mol/M | denaturant midpoint (higher = more stable) (10 °C): 6.7 M | unfolding free energy (10 °C): 7.87 kcal/mol | denaturant m value (15 °C): 1.14 kcal/mol/M | denaturant midpoint (higher = more stable) (15 °C): 6.43 M | unfolding free energy (15 °C): 7.34 kcal/mol | denaturant m value (20 °C): 1.18 kcal/mol/M | denaturant midpoint (higher = more stable) (20 °C): 5.71 M | unfolding free energy (20 °C): 6.72 kcal/mol | denaturant m value (25 °C): 1.17 kcal/mol/M | denaturant midpoint (higher = more stable) (25 °C): 5.2 M | unfolding free energy (25 °C): 6.09 kcal/mol | Tm (Thermal): 50.8 °C | unfolding enthalpy (calorimetric) (Thermal): 96.6 kcal/mol
